Source: article PMC4464074, “The HRDC domain of E. coli RecQ helicase controls single-stranded DNA translocation and double-stranded DNA unwinding rates without affecting mechanoenzymatic coupling”

Key:
Assay in all cases: fluorescence anisotropy; SF50: 50 mM Tris-HCl pH 7.5, 50 mM NaCl, 1 mM DTT, 5 mM MgCl2, 50 µg/mL BSA, 25 °C; anisotropy with 10 nM forked duplex
Settings in all cases: protein: recombinant; label: 3'-fluorescein on fork2; fork: 33 bp duplex with two 21-nt ssDNA arms (3' arm of fork1, 5' arm of fork2)
RecQWT = RecQWT (Escherichia coli, UniProt P15043 1-609)
RecQY555A = RecQY555A (Escherichia coli, UniProt P15043 1-609, Y555A)
RecQ523 = RecQ523 (Escherichia coli, UniProt P15043 1-523)

B1: forked duplex (fork1/fork2) (mixed)
DNA 1: CGTTGCGCAATTAAGCTCTAAGCCATCCGCAAATTTTTTTTTTTTTTTTTTTTT
DNA 2: TCCTTTTGATAAGAGGTCATTTTTGCGGATGGTTAGAGCTTAATTGCGCAACG
- Kd (RecQWT): 13 ± 4 nM
- Kd (RecQY555A): 46 ± 2 nM
- Kd (RecQ523): 60 ± 2 nM
